# Ends that are not written are not given here.
# B1: TfR peptide-derivatized dendrimer (transferrin receptor (TfR/CD71) targeting peptide THRPPMWSPVWP on a 2-layer DNA dendrimer) (peptide)
# peptide: THRPPMWSPVWP
# modifications: also: coupled to oligonucleotide cplCap03 on a DNA dendrimer, site not given here
# notes: The peptide-oligonucleotide conjugate was hybridised to capture oligonucleotides on a Cy3-labelled 2-layer DNA dendrimer carrying a ligated plasmid; About 2-5 peptides per dendrimer molecule; The protein part is only the 12-mer peptide; also called TfR targeting peptide; 2n-Cy3 3DNA-TfR peptide-K5/CFP
# Biological target: T1, transferrin receptor (TfR/CD71) on TfR-expressing LAPC-4 cells (human, UniProt P02786 1-760)
# T1 construct: whole, on cells
# T1 sequence (P02786 whole entry): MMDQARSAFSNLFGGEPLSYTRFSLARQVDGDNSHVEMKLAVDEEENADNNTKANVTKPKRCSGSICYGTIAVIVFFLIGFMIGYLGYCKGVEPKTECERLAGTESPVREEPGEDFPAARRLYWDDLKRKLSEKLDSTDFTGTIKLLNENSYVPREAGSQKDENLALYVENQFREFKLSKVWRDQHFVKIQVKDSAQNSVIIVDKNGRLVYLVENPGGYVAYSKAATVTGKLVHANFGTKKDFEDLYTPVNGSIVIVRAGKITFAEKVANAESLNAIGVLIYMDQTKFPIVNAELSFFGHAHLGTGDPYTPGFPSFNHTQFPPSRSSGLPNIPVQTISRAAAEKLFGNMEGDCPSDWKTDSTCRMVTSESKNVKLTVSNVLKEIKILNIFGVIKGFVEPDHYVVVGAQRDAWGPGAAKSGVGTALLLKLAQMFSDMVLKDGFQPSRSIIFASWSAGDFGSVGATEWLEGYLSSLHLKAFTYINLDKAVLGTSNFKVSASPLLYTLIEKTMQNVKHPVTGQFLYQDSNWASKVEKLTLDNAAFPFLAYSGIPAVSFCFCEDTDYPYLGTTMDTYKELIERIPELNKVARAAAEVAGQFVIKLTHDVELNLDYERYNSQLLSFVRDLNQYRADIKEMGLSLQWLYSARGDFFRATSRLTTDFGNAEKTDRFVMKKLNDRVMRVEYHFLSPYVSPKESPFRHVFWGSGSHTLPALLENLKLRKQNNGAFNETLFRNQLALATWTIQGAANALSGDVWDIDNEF
# Experiment: binding of dendrimer to cells in vitro; method not detailed
binder,measurement,value
B1,binding result,binds

# — patent US20150359907A1 (GENISPHERE, published 2015)
